In paper PMC6769691:

Columns and labels:
[1] = target: TNFRs on MR300 cells (human (endogenous in MR300)); test: immunostaining of cells or tissue; competition on adherent MR300 cells (CNGRC-binder): hTNF-Fc (1:50) staining, 1 h at room temperature, Alexa-594 anti-human antibody, with 0.01 to 30 µg/mL unlabeled NGR-hTNF or hTNF; percent of control
[2] = target: CD13 (aminopeptidase N), CNGRC-binder isoform, on HUVEC, mesoangioblasts (MB) and MR300 cells (human (endogenous in HUVEC, MB, MR300)) (UniProt P15144)
CD13 (aminopeptidase N), CNGRC-binder isoform, on HUVEC, mesoangioblasts (MB) and MR300 cells (human (endogenous in HUVEC, MB, MR300)), sequence (P15144 whole entry, canonical isoform): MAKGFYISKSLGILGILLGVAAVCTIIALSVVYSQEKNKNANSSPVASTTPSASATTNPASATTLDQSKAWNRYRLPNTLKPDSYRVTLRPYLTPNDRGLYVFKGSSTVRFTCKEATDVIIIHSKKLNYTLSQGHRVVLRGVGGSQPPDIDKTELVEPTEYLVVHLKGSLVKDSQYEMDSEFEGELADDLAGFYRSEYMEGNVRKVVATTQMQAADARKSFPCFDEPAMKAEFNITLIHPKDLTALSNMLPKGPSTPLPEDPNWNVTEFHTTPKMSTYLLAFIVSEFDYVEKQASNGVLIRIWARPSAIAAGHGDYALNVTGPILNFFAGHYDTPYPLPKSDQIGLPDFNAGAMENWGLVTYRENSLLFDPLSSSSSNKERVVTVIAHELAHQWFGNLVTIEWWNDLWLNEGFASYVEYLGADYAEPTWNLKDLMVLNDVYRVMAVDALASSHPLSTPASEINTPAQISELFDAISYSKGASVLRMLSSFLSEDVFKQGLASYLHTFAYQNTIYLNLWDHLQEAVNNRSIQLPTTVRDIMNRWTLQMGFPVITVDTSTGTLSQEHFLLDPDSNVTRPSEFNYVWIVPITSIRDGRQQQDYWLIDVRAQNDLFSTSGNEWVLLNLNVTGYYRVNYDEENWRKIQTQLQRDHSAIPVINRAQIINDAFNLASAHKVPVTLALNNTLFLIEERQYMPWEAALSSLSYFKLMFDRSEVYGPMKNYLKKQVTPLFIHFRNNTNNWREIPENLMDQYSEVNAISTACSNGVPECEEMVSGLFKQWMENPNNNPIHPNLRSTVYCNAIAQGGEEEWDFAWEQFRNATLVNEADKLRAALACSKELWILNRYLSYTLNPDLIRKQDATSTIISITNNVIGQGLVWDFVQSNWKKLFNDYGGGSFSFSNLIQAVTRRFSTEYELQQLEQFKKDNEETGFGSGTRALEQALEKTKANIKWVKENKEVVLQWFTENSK

Row | Substance | IC50 [1] [µM] | phosphorylation of Akt-Ser473 in MR300 cells treated with NGR-hTNF in comparison to hTNF (Kinexus phospho-site screen) [2] [%] | phosphorylation of Erk1 in MR300 cells treated with NGR-hTNF in comparison to hTNF (Kinexus phospho-site screen) [2] [%] | phosphorylation of Erk2 in MR300 cells treated with NGR-hTNF in comparison to hTNF (Kinexus phospho-site screen) [2] [%]
1 | NGR-hTNF (ligand) | 0.005 | -36 | -36 | -35
2 | hTNF (ligand) | 0.02 |  |  | 
